Four molecules from patent publication US20020127673A1 (REGENTS OF THE UNIVERSITY OF MICHIGAN, published 2002) can be followed below.

To fix the notation:
B1: TRAF-1 (other, UniProt Q13077 1-416, looked up)
chain: MASSSGSSPRPAPDENEFPFGCPPTVCQDPKEPRALCCAGCLSENPRNGEDQICPKCRGEDLQSISPGSRLRTQEKAHPEVAEAGIGCPFAGVGCSFKGSPQSVQEHEVTSQTSHLNLLLGFMKQWKARLGCGLESGPMALEQNLSDLQLQAAVEVAGDLEVDCYRAPCSESQEELALQHFMKEKLLAELEGKLRVFENIVAVLNKEVEASHLALATSIHQSQLDRERILSLEQRVVELQQTLAQKDQALGKLEQSLRLMEEASFDGTFLWKITNVTRRCHESACGRTVSLFSPAFYTAKYGYKLCLRLYLNGDGTGKRTHLSLFIVIMRGEYDALLPWPFRNKVTFMLLDQNNREHAIDAFRPDLSSASFQRPQSETNVASGCPLFFPLSKLQSPKHAYVKDDTMFLKCIVETST
notes: Construct and tag not described
B2: TRAF-6 (other, UniProt Q9Y4K3 1-522, looked up)
chain: MSLLNCENSCGSSQSESDCCVAMASSCSAVTKDDSVGGTASTGNLSSSFMEEIQGYDVEFDPPLESKYECPICLMALREAVQTPCGHRFCKACIIKSIRDAGHKCPVDNEILLENQLFPDNFAKREILSLMVKCPNEGCLHKMELRHLEDHQAHCEFALMDCPQCQRPFQKFHINIHILKDCPRRQVSCDNCAASMAFEDKEIHDQNCPLANVICEYCNTILIREQMPNHYDLDCPTAPIPCTFSTFGCHEKMQRNHLARHLQENTQSHMRMLAQAVHSLSVIPDSGYISEVRNFQETIHQLEGRLVRQDHQIRELTAKMETQSMYVSELKRTIRTLEDKVAEIEAQQCNGIYIWKIGNFGMHLKCQEEEKPVVIHSPGFYTGKPGYKLCMRLHLQLPTAQRCANYISLFVHTMQGEYDSHLPWPFQGTIRLTILDQSEAPVRQNHEEIMDAKPELLAFQRPTIPRNPKGFGYVTFMHLEALRQRTFIKDDTLLVRCEVSTRFDMGSLRREGFQPRSTDAGV
notes: as for B1
B3: TRAF-2 (other, UniProt Q12933 1-501, looked up)
chain: MAAASVTPPGSLELLQPGFSKTLLGTKLEAKYLCSACRNVLRRPFQAQCGHRYCSFCLASILSSGPQNCAACVHEGIYEEGISILESSSAFPDNAARREVESLPAVCPSDGCTWKGTLKEYESCHEGRCPLMLTECPACKGLVRLGEKERHLEHECPERSLSCRHCRAPCCGADVKAHHEVCPKFPLTCDGCGKKKIPREKFQDHVKTCGKCRVPCRFHAIGCLETVEGEKQQEHEVQWLREHLAMLLSSVLEAKPLLGDQSHAGSELLQRCESLEKKTATFENIVCVLNREVERVAMTAEACSRQHRLDQDKIEALSSKVQQLERSIGLKDLAMADLEQKVLEMEASTYDGVFIWKISDFARKRQEAVAGRIPAIFSPAFYTSRYGYKMCLRIYLNGDGTGRGTHLSLFFVVMKGPNDALLRWPFNQKVTLMLLDQNNREHVIDAFRPDVTSSSFQRPVNDMNIASGCPLFCPVSKMEAKNSYVRDDAIFIKAIVDLTGL
notes: as for B1
B4: Ced-4 (other, UniProt P30429 1-549, looked up)
chain: MLCEIECRALSTAHTRLIHDFEPRDALTYLEGKNIFTEDHSELISKMSTRLERIANFLRIYRRQASELGPLIDFFNYNNQSHLADFLEDYIDFAINEPDLLRPVVIAPQFSRQMLDRKLLLGNVPKQMTCYIREYHVDRVIKKLDEMCDLDSFFLFLHGRAGSGKSVIASQALSKSDQLIGINYDSIVWLKDSGTAPKSTFDLFTDILLMLKSEDDLLNFPSVEHVTSVVLKRMICNALIDRPNTLFVFDDVVQEETIRWAQELRLRCLVTTRDVEISNAASQTCEFIEVTSLEIDECYDFLEAYGMPMPVGEKEEDVLNKTIELSSGNPATLMMFFKSCEPKTFEKMAQLNNKLESRGLVGVECITPYSYKSLAMALQRCVEVLSDEDRSALAFAVVMPPGVDIPVKLWSCVIPVDICSNEEEQLDDEVADRLKRLSKRGALLSGKRMPVLTFKIDHIIHMFLKHVVDAQTIANGISILEQRLLEIGNNNVSVPERHIPSHFQKFRRSSASEMYPKTTEETVIRPEDFPKFMQLHQKFYDSLKNFACC
notes: as for B1

For the experiment, the target named is T1, HA-tagged wild-type Nod2 (human, UniProt Q9HC29 1-1040).
T1 construct: Expressed by transfection in HEK293T cells and tested in cell lysates; also called wt Nod2; pcDNA3-Nod2-HA; not shown: HA tag
T1 sequence (Q9HC29 whole entry R703H): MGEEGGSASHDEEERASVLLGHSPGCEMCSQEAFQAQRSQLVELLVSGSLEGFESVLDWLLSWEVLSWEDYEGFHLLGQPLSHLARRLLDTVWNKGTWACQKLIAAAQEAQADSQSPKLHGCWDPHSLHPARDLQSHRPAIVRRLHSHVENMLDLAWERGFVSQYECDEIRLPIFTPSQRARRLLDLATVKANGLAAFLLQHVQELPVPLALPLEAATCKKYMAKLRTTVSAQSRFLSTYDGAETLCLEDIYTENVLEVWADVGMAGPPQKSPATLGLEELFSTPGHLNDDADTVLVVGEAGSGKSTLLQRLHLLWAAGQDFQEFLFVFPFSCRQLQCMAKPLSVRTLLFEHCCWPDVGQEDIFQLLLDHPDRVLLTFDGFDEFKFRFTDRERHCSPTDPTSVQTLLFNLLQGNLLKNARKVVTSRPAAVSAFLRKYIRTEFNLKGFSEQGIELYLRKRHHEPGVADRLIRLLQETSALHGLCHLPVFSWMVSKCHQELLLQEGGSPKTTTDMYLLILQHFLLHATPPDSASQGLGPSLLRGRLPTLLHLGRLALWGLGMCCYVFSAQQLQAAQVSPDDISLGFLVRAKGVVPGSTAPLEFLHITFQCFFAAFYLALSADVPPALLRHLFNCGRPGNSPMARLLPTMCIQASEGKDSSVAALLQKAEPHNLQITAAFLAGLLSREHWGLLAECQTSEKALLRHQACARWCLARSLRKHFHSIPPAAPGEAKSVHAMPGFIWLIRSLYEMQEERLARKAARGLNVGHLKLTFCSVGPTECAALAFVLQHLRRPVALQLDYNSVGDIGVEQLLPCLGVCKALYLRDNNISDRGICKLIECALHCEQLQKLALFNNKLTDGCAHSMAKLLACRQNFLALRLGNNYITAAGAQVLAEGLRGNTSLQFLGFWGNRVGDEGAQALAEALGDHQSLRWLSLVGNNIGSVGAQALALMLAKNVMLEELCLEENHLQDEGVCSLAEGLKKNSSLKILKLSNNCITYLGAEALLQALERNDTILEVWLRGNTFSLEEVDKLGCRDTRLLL
The experiment in a line: co-immunoprecipitation from co-transfected HEK293T cells. The text has this: The CARD motif functions as an effector domain that mediates specific homophilic interaction with downstream CARD-containing molecules (Hofmann et al., Trends Biochem. Sci. 22: 155-156 [1997]).
Consider B1, for which the binding result is on record as “no binding”. Take B2: the binding result is recorded as “no binding”.

B3: the binding result is “no binding”.

Turning to B4, the binding result is on record as “no binding”.
